# Laboratory results taken from patent publication US20200121803A1 (published 2020).
# T1: human CD98, endogenously expressed on Molt-4 human acute lymphoblastic leukemia cells (human)
# T1 chain: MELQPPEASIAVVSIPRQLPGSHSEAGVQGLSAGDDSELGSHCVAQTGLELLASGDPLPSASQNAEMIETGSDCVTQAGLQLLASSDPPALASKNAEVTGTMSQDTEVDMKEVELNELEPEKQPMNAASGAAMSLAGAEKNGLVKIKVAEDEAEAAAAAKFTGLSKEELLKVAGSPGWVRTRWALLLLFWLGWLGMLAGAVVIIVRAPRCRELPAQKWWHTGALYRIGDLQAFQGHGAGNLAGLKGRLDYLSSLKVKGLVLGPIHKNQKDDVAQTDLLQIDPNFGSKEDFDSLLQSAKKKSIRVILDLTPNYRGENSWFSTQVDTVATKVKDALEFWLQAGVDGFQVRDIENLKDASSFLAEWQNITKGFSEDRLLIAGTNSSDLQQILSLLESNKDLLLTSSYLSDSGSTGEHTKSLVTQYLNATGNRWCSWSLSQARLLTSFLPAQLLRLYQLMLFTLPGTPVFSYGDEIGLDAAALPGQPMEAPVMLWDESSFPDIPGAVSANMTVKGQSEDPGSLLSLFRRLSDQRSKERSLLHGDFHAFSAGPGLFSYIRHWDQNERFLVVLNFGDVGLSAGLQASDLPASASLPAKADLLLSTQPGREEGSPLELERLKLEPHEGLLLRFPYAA
# Target: T1, human CD98, endogenously expressed on …
# Assay: cell-based or functional assay
Binder,% Cell Viability at 50 nM (Molt-4),"Molt4 IC50 (nM), 50% inhibition of cell proliferation, 72 h, ATPlite"
"CD98 (CL-huAb110)-XW (antibody, human IgG1, kappa, L234A L235A, V domains shown, synthon XW on reduced cysteine (see heavy chain); Bcl-xL inhibitor synthon XW on cysteines freed by TCEP reduction (Method G); DAR 3.2 by MS for the whole ADC) VH: EVQLVQSGAEVKKPGASVKVSCKASGFTFSDYTMAWVRQAPGQGLEWVATIIYDARGTYYRDAVKGRFTITRDNSTSTLYLELSSLRSEDTAVYYCARQSDDTYYYWGYFDYWGQGTMVTVSS VL: DIVMTQTPLSLPVTPGEPASINCKSSQSLLFSGNQKNYLAWYLQKPGQSPQLLIYWASTRQSGVPDRFSGSGSGTDFTLKISRVEAEDVGIYYCQQYYSSPYTFGQGTKLEIKR",19.6%,0.308 nM
"CD98 (CL-huAb102)-SR (antibody, human IgG1, kappa, L234A L235A, V domains shown, synthon SR on reduced cysteine (see heavy chain); Bcl-xL inhibitor synthon SR on cysteines freed by TCEP reduction (Method A); DAR 2.1 by MS for the whole ADC) VH: EVQLVESGGGLVQPGGSLRLSCATSGFTFIDYYMSWVRQAPGKGLEWLGFIRNKANRYTTEYSASVKGRFTISRDNSKSILYLQMNSLKTEDTAVYYCTRDRPAWFVYWGQGTLVTVSS VL: DIVMTQTPLSLPVTPGEPASISCKSSQSLLYSSNQKNYLAWYLQKPGQSPQLLIYWASTRESGVPDRFSGSGSGTDFTLKISRVEAEDVGVYYCQQYYSYPYTFGGGTKVEIKR",12.7%,0.03 nM
"CD98 (CL-huAb104)-SR (antibody, human IgG1, kappa, L234A L235A, V domains shown, synthon SR on reduced cysteine (see heavy chain); Bcl-xL inhibitor synthon SR on cysteines freed by TCEP reduction (Method A); DAR 2.2 by MS for the whole ADC) VH: EVQLVESGGGLVQPGGSLRLSCATSGFTFIDYYMSWVRQAPGKGLEWLGFIRNKAYGYTTEYSASVKGRFTISRDNSKSILYLQMNSLKTEDTAVYYCTRDRPAWFVYWGQGTLVTVSS VL: DIVMTQTPLSLPVTPGEPASISCKSSQSLLYSSNQKNYLAWYLQKPGQSPQLLIYWASTRESGVPDRFSGSGSGTDFTLKISRVEAEDVGVYYCQQYYSYPYTFGGGTKVEIKR",2.7%,0.045 nM
"CD98 (CL-huAb102)-YG (antibody, human IgG1, kappa, L234A L235A, V domains shown, synthon YG on reduced cysteine (see heavy chain); Bcl-xL inhibitor synthon YG on cysteines freed by TCEP reduction (Method E); DAR 1.1 by MS for the whole ADC) VH: EVQLVESGGGLVQPGGSLRLSCATSGFTFIDYYMSWVRQAPGKGLEWLGFIRNKANRYTTEYSASVKGRFTISRDNSKSILYLQMNSLKTEDTAVYYCTRDRPAWFVYWGQGTLVTVSS VL: DIVMTQTPLSLPVTPGEPASISCKSSQSLLYSSNQKNYLAWYLQKPGQSPQLLIYWASTRESGVPDRFSGSGSGTDFTLKISRVEAEDVGVYYCQQYYSYPYTFGGGTKVEIKR",31.9%,1.21 nM
"CD98 (CL-huAb102)-KZ (antibody, human IgG1, kappa, L234A L235A, V domains shown, synthon KZ on reduced cysteine (see heavy chain); Bcl-xL inhibitor synthon KZ on cysteines freed by TCEP reduction (Method A); DAR 2.8 by MS for the whole ADC) VH: EVQLVESGGGLVQPGGSLRLSCATSGFTFIDYYMSWVRQAPGKGLEWLGFIRNKANRYTTEYSASVKGRFTISRDNSKSILYLQMNSLKTEDTAVYYCTRDRPAWFVYWGQGTLVTVSS VL: DIVMTQTPLSLPVTPGEPASISCKSSQSLLYSSNQKNYLAWYLQKPGQSPQLLIYWASTRESGVPDRFSGSGSGTDFTLKISRVEAEDVGVYYCQQYYSYPYTFGGGTKVEIKR",20.7%,0.062 nM
"CD98 (CL-huAb104)-SE (antibody, human IgG1, kappa, L234A L235A, V domains shown, synthon SE on reduced cysteine (see heavy chain); Bcl-xL inhibitor synthon SE on cysteines freed by TCEP reduction (Method A); DAR 2.4 by MS for the whole ADC) VH: EVQLVESGGGLVQPGGSLRLSCATSGFTFIDYYMSWVRQAPGKGLEWLGFIRNKAYGYTTEYSASVKGRFTISRDNSKSILYLQMNSLKTEDTAVYYCTRDRPAWFVYWGQGTLVTVSS VL: DIVMTQTPLSLPVTPGEPASISCKSSQSLLYSSNQKNYLAWYLQKPGQSPQLLIYWASTRESGVPDRFSGSGSGTDFTLKISRVEAEDVGVYYCQQYYSYPYTFGGGTKVEIKR",17.1%,0.149 nM
"CD98 (CL-huAb110)-SE (antibody, human IgG1, kappa, L234A L235A, V domains shown, synthon SE on reduced cysteine (see heavy chain); Bcl-xL inhibitor synthon SE on cysteines freed by TCEP reduction (Method A); DAR 1.9 by MS for the whole ADC) VH: EVQLVQSGAEVKKPGASVKVSCKASGFTFSDYTMAWVRQAPGQGLEWVATIIYDARGTYYRDAVKGRFTITRDNSTSTLYLELSSLRSEDTAVYYCARQSDDTYYYWGYFDYWGQGTMVTVSS VL: DIVMTQTPLSLPVTPGEPASINCKSSQSLLFSGNQKNYLAWYLQKPGQSPQLLIYWASTRQSGVPDRFSGSGSGTDFTLKISRVEAEDVGIYYCQQYYSSPYTFGQGTKLEIKR",5.7%,0.502 nM
"CD98 (CL-huAb102)-KZ (second row with this label, r76, DAR 2.2) (antibody, human IgG1, kappa, L234A L235A, V domains shown, synthon KZ on reduced cysteine (see heavy chain); Bcl-xL inhibitor synthon KZ on cysteines freed by TCEP reduction (Method A); DAR 2.2 by MS for the whole ADC) VH: EVQLVESGGGLVQPGGSLRLSCATSGFTFIDYYMSWVRQAPGKGLEWLGFIRNKANRYTTEYSASVKGRFTISRDNSKSILYLQMNSLKTEDTAVYYCTRDRPAWFVYWGQGTLVTVSS VL: DIVMTQTPLSLPVTPGEPASISCKSSQSLLYSSNQKNYLAWYLQKPGQSPQLLIYWASTRESGVPDRFSGSGSGTDFTLKISRVEAEDVGVYYCQQYYSYPYTFGGGTKVEIKR",16.2%,0.35 nM
